Assay results from publication PMC10126157, “High concentrations of soluble endoglin can inhibit BMP9 signaling in non-endothelial cells” (Scientific Reports, 2023).

Target: T1, sENG-Fc (soluble endoglin Fc fusion) (human, UniProt P17813 26-586)
T1 construct: soluble endoglin (ENG, CD105) fused to Fc, recombinant human protein from R&D Systems; Construct limits are known only through the catalogue number; source: bought: R&D Systems (Cat.# 6578-EN), recombinant human protein
T1 sequence (looked up): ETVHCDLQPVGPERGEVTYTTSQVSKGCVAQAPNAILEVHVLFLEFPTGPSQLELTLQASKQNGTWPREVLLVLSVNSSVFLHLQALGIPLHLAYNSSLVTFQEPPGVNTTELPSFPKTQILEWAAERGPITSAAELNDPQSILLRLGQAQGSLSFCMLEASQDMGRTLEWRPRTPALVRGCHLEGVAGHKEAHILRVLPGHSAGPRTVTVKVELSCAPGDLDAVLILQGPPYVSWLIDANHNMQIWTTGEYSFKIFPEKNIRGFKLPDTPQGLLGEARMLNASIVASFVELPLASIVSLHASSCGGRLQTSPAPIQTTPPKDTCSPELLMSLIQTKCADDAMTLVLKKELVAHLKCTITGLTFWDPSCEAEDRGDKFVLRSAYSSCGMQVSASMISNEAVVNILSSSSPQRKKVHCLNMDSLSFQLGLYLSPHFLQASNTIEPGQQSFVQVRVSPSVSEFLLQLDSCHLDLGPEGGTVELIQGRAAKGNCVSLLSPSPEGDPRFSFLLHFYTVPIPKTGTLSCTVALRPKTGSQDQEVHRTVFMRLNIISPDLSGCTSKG
Assay: ELISA; ActRIIA-Fc coated on MaxiSorp plates (1 ug/mL in PBS, overnight, 4 °C), blocked with 1% BSA; BMP9 (15 ng/mL) added with increasing concentrations of sENG(M), sENG(D) or sENG-Fc; bound BMP9 detected with BMP-9 DuoSet ELISA reagents
Details: both partners purified

binding result: binds
B1: Bone morphogenetic protein 9 (BMP9) (ligand, human, UniProt Q9UK05 320-429, looked up)
chain: SAGAGSHCQKTSLRVNFEDIGWDSWIIAPKEYEAYECKGGCFFPLADDVTPTKHAIVQTLVHLKFPTKVGKACCVPTKLSPISVLYKDDMGVPTLKYHYEGMSVAECGCR
notes: BMP9 (GDF2), recombinant human protein from R&D Systems; source: bought: R&D Systems (Cat.# 3209-BP), recombinant human protein
